Experiment: label from the status in PepcDB records
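Also: failed if final PepcDB status was selected cloned or expressed and not failed if soluble or beyond.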

For “MIGYVLNGEHEEIPYGELMALLEIFNYNGSVERLKRYVITEDSPAKDIVKRSGYIDEGHRIIFRYNLEEKSVDLVDKIVNDFINSFKDFVANIDYPDIDESKSYAVRVLKLHKDEFTKSIDSLRIEKEIGGIIKLKTNAKVNLTKPDILVRVVILENTFFISNVLEMRDREYFQKNRPHLRKYFHPGCMLPKLARAMVNLARVKEGDIVLDPFCGTGGFLIEAGLIGAKLIGCDIDWRMASGTLINLEEYNLLDKVIKVKRLDAKYVKEFLNELNIEKVDAIVTDPPYGISTAKKGEIEKILETLPEVIKDNGYFVFAYPKKIELDMELEGLYKVYIHKGLIRHIHVYKKI”, which protein production is on record?
Its protein production is “failed”.

Which protein production does the source give for “MIHITSQACFLWHTTINKICNRPMFNPLTIRFWGVRGSIPCPGSHTVRYGGNTPCVEIQANGQRIILDGGTGLRVLGEHLMGQQPVTAHLFFTHTHWDHIQGFPFFQPAFVPGNQFHIYAVPGKNGQGIERRLNDQMLHPNFPVPLQIMGGDLRFYDLEVGERVHLGDGVVVSNEALNHPGGGVGYRVSWQGIHVAYITDTEHLPDRLHPGAFALADHADVMIYDATYTDEEYYHPQQSKVGWGHSTWQEAVKLAQAAQVKQLILFHHDPSHDDDCLDRIGELARAQFPQTLLAREGLIISVYPNVIHFPATPQASLEHHHHHH” here?
Its protein production is “failed”.

For “MIIESRIEKGKPVVGMETTVFVHGLPRKEAIELFRRAKEISREKGFQLAVIGILKGKIVAGMSEEELEAMMREGADKVGTREIPIVVAEGKNAATTVSATIFLSRRIGIEVVVTGGTGGVHPGRVDVSQDLTEMSSSRAVLVSSGIKSILDVEATFEMLETLEIPLVGFRTNEFPLFFSRKSGRRVPRIENVEEVLKIYESMKEMELEKTLMVLNPVPEEYEIPHDEIERLLEKIELEVEGKEVTPFLLKKLVEMTNGRTLKANLALLEENVKLAGEIAVKLKRS”, which protein production is on record?
Its protein production is “not failed”.

With “MIIGIDLGTTNSAVAYIDDSGNPTILPNREGERVTPSVIFFEDGSPVIGSTAKSISVSDPTNTVQFVKRQMGNASYKFPIGGEVFTPEDLSALILKRLKEDAEEAIGAKVTKAVITVPAYFDDAQRKATQDAGRIAGLHVLKVINEPTAAALAYGLANREQKQNVMVYDLGGGTFDVTLIQLNQDEVVVKATGGDRNLGGFDFDNKIFELVEQKFEEEHGLDLYDDLNAVQDLREKAEACKKMLSSRKKSVITLSSQGRTVKVEVTKEKFDELLSPLLSRTALIMKNVLMDAELSWGDIDKIVLVGGSTRVPAVSDLIERTTGIKPSKDVNPDEVVALGAAIQGSLLQVDNEASNNAEEFKPKTRVVDVNSHSLGILIHDNNTGGFINQKMIVRNTPIPASEEAVFYTVNDGQTSLHVQVTEGEDSDPDFVKVIGESNLDLRGSKPQGYPVRFIFTYDENGVVHVYGKDENTGQHLGEMQIERKSNLTEAAIEKKAEKLAGISVE” as the sequence, how does the protein production read?
Its protein production is “failed”.

For “MIIKNKMVKRLISTFLMSLLLASMMLVIGAGNVYAQGSVSSTSLQVSADGSDYYIIGSDFYNHFVRPTTVDLAKNKVVYNKQILTVYNGRIDKWKMSFLNQDSSGKSWFKFLSYPEATKGDIKITYTTDGINYSDSKPSLEQLKGYMVELLKPIVYPDDANNQENDIEVSFQLSPDTDYILSNSNLNKQFIPFSGENWLQNYSPYPFFTDRNQLQFVYPDYSKGVMVKYVDEEGNEIHDPQTISGSKGDVYDASTDQYKLVLDGYTLDTSKLPQNSIGNFKEALQTVTYVFSKNPVLAADVTVRYVDKENNPISEDIILQGNIGENYYTDKKILKIIL”, which protein production is on record?
The protein production was “failed”.

Which protein production does the source give for “MIIKPAGDSAFLISFGDEISEEINDRVHSLAKAIEKESPEWLVELVPAYSSLLVIYDPLKASYEEVESYLKRISAREVERIKGKTIEIPVAYGGEFGPDIEFVAQYNGLSVDDVIEIHSKPLYRVYFLGFLPGFAYLGGMDERIATPRLEKPRLKVPAGSVGIAGKQTGWYAIESPGGWRIIGRIPLRTFNPGKVPPSIVLPGDYVKFVPIDEKEFWEIYGREWE” here?
Its protein production is “not failed”.

With “MIILRRLSKEKHHQVNPLWHIYRKIKFVKVLKQTLIIEIARFVPSMKLKNKIYKKLLKMDVGNHTSFAYKVLPDLFYPEYISVGKNTVIGYNTTILTHEVLVDEWRVGKVIIGDYTLIGANTTILPGITIGNHVKIGAGTVVSKDVPDYSFAFGNPMQIQLDSGGDNEWHKKKITSFQ” as the sequence, how does the protein production read?
Its protein production is “failed”.

With “MIIQIVLWDCYTVPYFCFEKRRFMEELKFEELELCPEILKAVKHMGFEEASPIQSKAIPVIMSGKDVIGQAQTGTGKTAAFGIPLLEKIDPKNKKLQAIVLCPTRELAIQVAEEIRNLAKYMHGIKVLPIYGGQEIVKQIRSLKSGTQLVIGTPGRVMDHMRRKTMKMDHVHTIVLDEADEMLNMGFREDIETILEGIPQEHQTVLFSATMPKAILEITKQFQTNAELVKVTKKELTVPNIEQFYYEVKPKNKEEVLSRLLDIYTPKLSVVFCNTKKQVDLLVNGLLGRGYFAAGLHGDMKQAQRDRVMQGFRSGKTDILVCTDVAARGIDVDDVEAVFNYDLPQDDEYYVHRIGRTGRAGRVGRSFSFVSGREVYKLKEIQRYCKTKIYAQKVPSLNDVANTKMENVLEEIEQIIENEDLTKFLQIIEERVNESDYTAMDLAAAFLKYCSGQQETEEKDMEFGDTGAEEAGMVRLFINIGKKNKAKPGDIVGAIAGESGIPGKLIGTIDMFDKYTFVEVPREYARDVLNAMNHTKIKGKSVAVEPANQK” as the sequence, how does the protein production read?
Its protein production is “failed”.

With “MIIRIKHYGEVKIEDSKNLLLNLIENRIGIDNICNGKGTCGKCKVRFRQGVPEATSADLRYLSVEELEEGVRLACQVKPQKGMEIDVTLSNSFDRKNTVLEHHHHHH” as the sequence, how does the protein production read?
The protein production was “failed”.

Which protein production does the source give for “MIISSLTNPNFKVGLPKVIAEVCDYLNTLDLNALENGRHDINDQIYMNVMEPETAEPSSKKAELHHEYLDVQVLIRGTENIEVGATYPNLSKYEDYNEADDYQLCADIDDKFTVTMKPKMFAVFYPYEPHKPCCVVNGKTEKIKKLVVKVPVKLI” here?
The protein production was “not failed”.

For “MIITVASFKGGVGKTTTAVHLSAYLALQGETLLIDGDPNRSATGWGKRGSLPFKVVDERQAAKYAPKYQNIVIDTQARPEDEDLEALADGCDLLVIPSTPDALALDALILTIETLQKLGNNRFRILLTIIPPYPSKDGDEARQLLTTAGLPLFKRGIKRYSAFQKASLNGVVVSEVSDSKAGIAWSDYKATGKEIVEEILILEHHHHHH”, which protein production is on record?
The protein production was “not failed”.

For “MIIWQPDQKINNGRFIIQGKPLGEGGFGITYKALEPSTGKLYAIKTLNQQMQLLRSDFAEQQIKFINEALTIKGFDHPHILKVHEVIQEGELFGVVMEYIDGVTLFEYVQDKGQLSETEALLYVNQIGQALELIHQKQHLHRDIKPENILLRHTTRKAILIDFGLAREFTIDQTGSMTNAKTEGYAPPEQYERRGRFDAYVDVYALAATLYNLLTGKVPLPVNFRKAGIPLPPPKQFNSQISQRVNDAILKGMELEPQERTPTVLEFRKNLGLVSSGGAEVQLKSSVGMDYRQLRDLLAVGKWKEADAETARVMLAAMKREKEGWLREEDTWFFPCEDLRTIDQLWVKYSNGRFGFSVQKRIYQSLGGKRSYDEEIWRAFGDKVGWRKGGEWLYYKDITFDITAPEAHLPCYTLTIPYTSRGEVGYTDYSPGFGLWWWWGGGLFSRVETCKM”, which protein production is on record?
Its protein production is “failed”.

Which protein production does the source give for “MIIYILINIAIVLLILGFDLYRHRFRQLKFSSILLSVLINSMIDIFAINQFNFITMFTVTLFMIWTLLQIYLNFKLYPFVISDQKFIAIILAIVISLLQFITDKSSTQSVYMSIPYLSPTIFIIGAILLFVGTFKIDEVERLSLFRKIKRPMTTGTIIIILSLISTMILTPFWYVFLIIYSLLIGFILWQGVFFIKDKK” here?
Its protein production is “failed”.

For “MIKEARLNDYMGDEVWYVPATRNMLNMLGIRTHYIDNNSTGVNIFLKEPLYVGKVVINIYGIKIEKSVREYPKIPELVRKLGINIEYLPFNYTKNESYWENLKLKIWEIAERNGFLEYETYSKFPGVYYVIPVENYERFMKELSNFSDIVVVPGYKYPDEENIHKYLNTEHPFLGKDLIALGMLANDKPLYWRLPGIIEHALIVLIVAFVSYKIARSYLATLISATFVALDPLLFATGIVAMLDIHVAFFVALFMLFLTIRRLRISGISLGLAAATKLSGAFVFPILWAKILKEEDLKEFIISGVVLPVIAFLVPEIPIIKAIGFIPWLEEFMGSFSWHLSFKGEHPAEAPFWLWFISLKPFPFHFNPDVYAVTDPILMISMIAFIFAVPYVSLRRKGLGEIFWMFWSIIGFFALQYILGGKTQFIFYATPLVPPGAVALGVISYEIIKWEYFERSVKIYMNYLRSLKEFIKR”, which protein production is on record?
The protein production was “failed”.

Which protein production does the source give for “MIKILGHHISTLSITLALYETLIFMCVLYSFIFIMSFFFNIPVPEKLSMVILLALTATIAAGSLGLYNQRLFGDFKEFIWRIALTLPLILLAVLFVSFAYGEITATDQSPFYLAAAFGIPAALLLVVLGRGICFRIPGIKAFRRRILVLGTGEMADRLAALETSQPYRHYEIIGFVALGDDPAPLGEKWRVFDRNCIETRHDLLKICADHNINEVIFAASERRRANSSTFGLPVWDLLECRLMGIHVAEYASFWERETGRIDLDHLRPGWLIFSEGFRNSSRRMIAKRFFDVITALLLVILSLPVLVAAAIAVKLSSPGPVFYRQERVGVNGKPFNLIKFRSMPIDAEKNGPVWGTVKDKRATGVGSLLRRTRIDEIPQVFNVLRGDMSFIGPRPERPVFVEELSRELDFYGERHAVRPGISGWAQINYPYGASVADAKQKLSYDLYYIKNGSLFLDIIILFQTFRVVLWPEGSKEKAGAVVR” here?
The protein production was “failed”.

With “MIKKNNLILIKLKNSMKKMIKIAFVAAFVAIAGYGVYTNQKSETLSDLTLANVEALAGGESGGYYCCSPYSYECYRIVGGGIVHGLRLPLPC” as the sequence, how does the protein production read?
The protein production was “failed”.

Which protein production does the source give for “MIKLIHNANIVLEDMILENGHLIIEGDTIKKVSNDKIDYAFDFNEIDEIIDAKNLYVIPGIIDIHSDAIEKEIEPRPSTLLPFNMAFYELDKKLPANGITTVYHSISLGDGVGVRSIDNSLKMIKNIDSYKNIDSKSINHKVHLRYEVLYYEGLEKVLELLDENKIDYLSIMDHSPGQGQYTNPTFYKEYATKVWGVTENYVDTWLDDLVNLHDNLDWNKIANIIGIAKTKNINVASHDDDTLEKMDFIKNIGINVSEFPITLEVAKHSKKLGVLTCLGAPNIVRGKSHNNNLKAMDAILEDCCDIVCSDYLPSAMIKSMCIVAERINNLNKAVSLFTSNPAKAVGIYDERGSIKENKKADLVLVDIDSEYPKVVNTIVNGKTVYKREV” here?
The protein production was “failed”.

With “MIKLIVSDLDETLVGPDGNVSEENIEAIKKATQKGVKFVPNTGRGFESVQPLLETLGLKGKANEFVISYNGGVIVENQNFDVIQANAFSFEQATQIFDITKQHLENSTHIYTLNDVYVFNEVEEDNEYIRSRGVRTIRFEHDNLDTLKDEPIFKIITMNPDFNKRKQIKAEVLDKVNFDVNATFSSDRYTEFNLKGVDKGQASLELGRHLGIKADEIMALGDNNNDVAMLKSVGLPVVVSNASASAKANAKYIAKGNYETGVAEAINKFVLGE” as the sequence, how does the protein production read?
The protein production was “failed”.

With “MIKLLKKINIKSIIELVKKDFKLKLISLSVGIVMWFLVIGGVNPVVTRQFTDVPVSFKNQSVLESRKLIRVSPENPTVTVTITGKRSDVYSVNKSDIVAEVNLQNGITSGAHRLSINYKVPYNVQFKSASDNDLLVTLDEEISKTYKVEVETIGQIKNKNQVVAKKEPADSEVVVKGPVSYVNKVKRVRCVVDVTNKDGDEVVQSKIVPVDELNKEVKKVSLSKTDTNVSIGFKNFKEVPIKLVEINSPPSDVRILKKDIVPNIISIVGNLTSLEQISQINTKPFDLSQIKESGSYNLNLELPSDVTLVNNDLKVVINIDVDKKIEKTLEIDTSNIEIENESGKDILLKGLQDKVKVTVRGYESDLAKLNAEDIRLYISVKKEDVGKNVQIKAKNIENIEIAKISNDIVQAIGK” as the sequence, how does the protein production read?
The protein production was “failed”.

Which protein production does the source give for “MIKLLLLDVDGTLTDGSLYFDENFHEIKAFNVKDGLGMTLWQKLGKKIAIITGRTSIMVKKRMESLGVQFVFMGVENKNTVIERLKKDLQLSAQEIACVGDDYNDLGMFKACALSFAPFDAHPLLKSKAYKVLQNSGGKGAVREAIDYLLTLEGLQDEALKLYL” here?
Its protein production is “failed”.
